Results as given in patent US20210253725A1 (BIONTECH, published 2021).

T1: CD27 protein (His-tagged, Sino Biological Inc. 10039-H08B1) (human, UniProt P26842 20-192)
T1 construct: bought; coated onto ELISA plates; also called human CD27; recombinant protein; not shown: His tag
T1 sequence (looked up): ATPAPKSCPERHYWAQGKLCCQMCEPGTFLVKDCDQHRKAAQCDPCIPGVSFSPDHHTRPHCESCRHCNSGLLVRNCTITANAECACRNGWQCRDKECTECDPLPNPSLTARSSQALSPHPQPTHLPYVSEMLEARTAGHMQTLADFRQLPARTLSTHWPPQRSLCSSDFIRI

T2: CD27 expressed on the cell surface (HT1080_CD27 cells) (human, UniProt P26842 20-260)
T2 construct: whole, on cells; also called K562_CD27
T2 sequence (looked up): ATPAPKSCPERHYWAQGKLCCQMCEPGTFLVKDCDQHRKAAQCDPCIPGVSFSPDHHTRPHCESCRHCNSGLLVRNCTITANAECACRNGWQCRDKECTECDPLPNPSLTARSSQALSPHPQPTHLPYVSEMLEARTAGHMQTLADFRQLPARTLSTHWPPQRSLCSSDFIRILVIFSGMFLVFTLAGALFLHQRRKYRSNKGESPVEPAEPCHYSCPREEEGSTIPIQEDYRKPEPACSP


Experiments:
[1] = target: T1, CD27 protein (His-tagged, Sino …); test: ELISA on coated His-tagged CD27
[2] = target: T2, CD27 expressed on the cell surface …; test: cellular binding assay, HT1080_CD27 cells
[3] = target: T2, CD27 expressed on the cell surface …; test: cell-based or functional assay
Further: test concentration or dose not given here.

| Binder | ELISA [abs. corr.] [1] [abs. corr.] | Cellular binding assay [RFU] [2] [RFU] | IL-8, cross-linked by F(ab')2 fragment [abs. corr.] [3] [abs. corr.] | IL-8 [abs. corr.] [3] [abs. corr.] |
| --- | --- | --- | --- | --- |
| P018.S.02.A.G04 (antibody, V domains shown, V regions on human Ig constant parts; also called AB27_39) VH: QSLEESGGRLVTPGGSLTLTCTVSGIDLSSYAMGWVRQAPGKGLEYIGIIYTSNRTHYATWAKGRFTISKSSTTVDLKATSLTTEDTATYFCGRYGRGSGGYYYGMDLWGPGTLVTVSS VL: DIVMTQTPASVEAAVGGTVTIKCQASQSGDNYCSWYQQKPGQPPKLLIYQASKLTSGVPSRFRGSRSGTEYTLTISDLESADAATYYCQNYCAGSGVCLGIAFGGGTEVVVK | 3.19 | 196 | 1.67 | 0.205 |
| P018.S.07.A.G04 (antibody, V domains shown, V regions on human Ig constant parts; also called AB27_130) VH: QSLEESGGRLVTPGTPLTLTCTVSGIDLSSYAMGWVRQAPGKGLEYIAIIYTTNRTHYATWAKGRFTISKSSTTVDLKATSLTTEDTATYFCGRYGRGSGGYYYGMDLWGPGTLVTVSS VL: DIVMTQTPASVEAAVGGTVTIKCQASQSGDNYCSWYQQKPGQPPKLLIYQASKLTSGVPSRFRGSRSGTEYTLTISDLESADAATYYCQNYCAGSGVCLGIAFGGGTEVVVK | 3.16 | 177 | 1.74 | 0.274 |
| P018.S.04.A.C05 (antibody, V domains shown, V regions on human Ig constant parts; also called AB27_70) VH: QSVEESGGRLVTPGTPLTLTCTVSGFSLNYYSMAWVRQVPGEGLEWIGTINTGGGTYYASWAKGRFTISKTSTTVDLKMTSLTAADTATYFCARSDGTGITYYNLWGQGALVTVSS VL: ALVMTQTASPVSAAVGGTVTINCQASETIYSNLAWYQQKQGQPPKLLIYRASNLASGVPSRFSGSESGTQFTLTISGVQSDDAATYYCQGYYNTGITGFGGGTEVVVK | 3.17 | 292 | 1.43 | 0.382 |
| P018.S.09.A.A03 (antibody, V domains shown, V regions on human Ig constant parts; also called AB27_144) VH: QEQLVESGGGLVQPEGSLTLTCTASGFSFSSSYYMCWVRQAPGKGPEWIACIYTYSGDTDYANWAKGRFTISKTSSTTVTLQMTSLTAADTATYFCAKAGYGGYGYPIFNLWGPGTLVTVSS VL: AFELTQTPSSVEAAVGGTVTIKCQASQSIGSSLAWYQQKPGQRPKLLMYYVSTLASGVSSRFKGSGSGTEFTLTISDLESADAATYYCQSYYGSGTTVFWAFGGGTEVVVK | 3.16 | 360 | 1.54 | 0.263 |
| P018.S.09.A.A05 (antibody, V domains shown, V regions on human Ig constant parts; also called AB27_145) VH: QSVEESGGRLVTPGTPLTLTCTVSGFSLSSYAMSWVRQAPGKGLEWIGYIWSGGTTDYASWAKGRFTISKTSTTVDLKITDPTTEDTATYFCARGLGDRGSSDYYMPLKLWGQGTLVTVSS VL: AAVLTQTPSPVSAAVGGTVTINCQASEDIESYLAWYQQKPGQPPKLLIYSTSNLASGVSSRFRGSGSGTQLTLTISDLESADAATYYCQCTYDGSSAVWGAFGGGTEVVVK | 3.17 | 214 | 1.95 | 0.504 |
| P018.S.01.A.G06 (antibody, V domains shown, V regions on human Ig constant parts; also called AB27_24) VH: QSLEESGGGLFKPTDTLTLTCTVSGIDLSRYAMGWVRQAPGKGLEYIGIISVGGGTYYANWIKGRFTISSTSTTVDLKITSPTTEDTATYFCARSPYASTSASAFNLWGPGTLVTVSS VL: AFELTQTPSSVEAAVGGTVTIKCQASQSIYSYLSWYQQKPGQPPKLLIYEASKLASGVPSRFSGSGSGTQFTLTISDLESADAATYYCQSYSNTNTNTFGGGTEVVVK | 3.17 | 313 | 1.09 | 0.491 |
| P018.S.06.A.F03 (antibody, V domains shown, V regions on human Ig constant parts; also called AB27_108) VH: QSLEESGGDLVRPGASLTLTCTASGLSFSDRYWISWVRQAPGKGLEWIASIYTGSDGVADYATWAKGRVTISKTSSTTVTLQMTSLTAADTATYFCARDREYGSNTGVYSLWGPGTLVTVSS VL: DVLMTQTPSSVSPAVGGTVTIKCQASQNIYSNLAWYQQKPGQRPKLLVYDASNLEYGVPSRFKGSGSGTEYTLTISDLESADAANYYCQCTYYGNNYITFGGGTEVVVR | 3.16 | 304 | 1.08 | 0.063 |
| P018.S.09.A.E05 (antibody, V domains shown, V regions on human Ig constant parts; also called AB27_155) VH: QSLEESGGRLVTPGTPLTLTCTVSGIDLSRYDMSWVRQAPGKGLEWIGFIGASGSTYYASWVKGRFTISKTSTTVDLKITSPTTEDTATYFCAREETDSRGYYYSLWGPGTPVTVSS VL: ALVMTQTPASVEAAVGGTVTINCQASQSISDLLGWYQQKPGQPPKLLIYDASDLASGVPSRFSGSGSGTEFTLTISGVQSDDAATYYCQQGYSINNVDNAFGGGTEVVVK | 3.52 | 353 | 2.17 | 0.872 |
| P018.S.04.A.E02 (antibody, V domains shown, V regions on human Ig constant parts; also called AB27_74) VH: QSVEESGGRLVTPGTPLTLTCTVSGFSLNNYDMNWVRQAPGKGLEWVGYIDTGGSAYYASWVNGRFTISKTSTTVELKMTSLTASDTATYFCARGYTHGYLWGQGTLVTVSS VL: ALVMTQTPSSVSAAVGGTVTINCQASQNVYNNLAWYQQKPGQPPKLLIDSASTLASGVSSRFKGSGSGTEFTLTISDLESADAATYYCQSADWESSNFFWAFGGGTEVVVK | 3.52 | 463 | 1.91 | 0.676 |
| P018.S.08.A.A01 (antibody, V domains shown, V regions on human Ig constant parts; also called AB27_135) VH: QSVEESGGRLVTPGTPLTLTCTVSGFSLNNYDMNWVRQAPGKGLEWVGYIDTGGSAYYANWVNGRFTISKTSTTVELKMTSLTASDTATYFCARGYIHGYLWGQGTLVTVSS VL: ALVMTQTPSSVSAAVGGTVTINCQASQNVYNNLAWYQQRPGQPPELLIDSASTLASGVSSRFKGSGSGTEFTLTISDLESADAATYYCQSADWESSNFFWAFGGGTEVVVK | 3.42 | 448 | 1.57 | 0.876 |
| P018.S.06.A.F06 (antibody, V domains shown, V regions on human Ig constant parts; also called AB27_110) VH: QSVEESGGRLVTPGTPLTLTCAASGFSLNSYVMSWVRQAPGKGLEWIGYIDYGGAPYYASWAKGRFTISKTSTTVELKITSPTIEDTGTYFCARGGYGGYVLVTALWGPGTLVTVSS VL: DIVMTQTPASVSEPVGGTVTIKCQASENIYSYLAWYQQKPGQPPKLLIYQASTLASGVSSRFKGSGSGTQFTLTISDLESADAATYYCQTYYGGSTYGNGFGGGTEVVVE | 3.17 | 326 | 1.03 | 0.7 |
| P018.S.06.A.F04 (antibody, V domains shown, V regions on human Ig constant parts; also called AB27_109) VH: QQQLEESGGGLVKPEGSLTLTCKASGFTLSSYLMCWVRQAPGKGLELIGCIGTYSGATYYGSWAKDRFTIAKTSSTTVTLQMTSLTAADTATYFCARDYNFALWGPGTLVTVSS VL: AIVMTQTPSSKSVPVGDTVTINCQASESVYNNNYLSWFQQKPGQPPKLLIYGASTLTSGVPSRFKGSGSGTQFTLTISDVVSDDAATYYCAGYKSSWTDGNAFGGGTEVVVK | 3.18 | 338 | 1.16 | 0.678 |
| P018.S.10.A.B01 (antibody, V domains shown, V regions on human Ig constant parts; also called AB27_166) VH: QSLEESGGRLVTPGTPLTLTCTASGFSLSSYYMSWVRQAPGKGLEWIGIIDRAGTTYYATWAKGRFTISRTSTTVDLKMTSPTTEDTGTYFCARNFIYGVGTYYGSDLWGQGTLVTVSS VL: DVVMTQTPASVSDPVGGTVTIKCQASESISRRLAWYQQKPGQPPKLLIYGASDLASGVPSRFSGSGSGTEFTLTISGVQSDDAATYYCQDTDYGSGHLGAFGGGTEVVVK | 3.19 | 333 | 1.04 | 0.08 |
| P018.S.06.A.E04 (antibody, V domains shown, V regions on human Ig constant parts; also called AB27_106) VH: QEQLEESGGDLVQPEGSLTLTCTVSGFSFDSNYWICWVRQAPGKGPEWIACIMTGDGSIYYATWAKGRFTISKTSSTTVTLQMTSLTAADTATYFCARGYDGIHGGDNYGHVFNLWGPGTLVTVSS VL: AFELTQTPFSVSAVVGGTVTINCQASENIYTLLAWYQQKSGQPPKLLIYRASTLTSGVPSRFKGSGSGTQFTLTISDLESADAATYYCQGYYVDSGNTFGGGTEVVVK | 3.16 | 281 | 1.22 | 0.327 |
